Experiments:
[1] = system: RcsB-6His (Dickeya dadantii 3937 (EC3937)?); assay: EMSA; conditions: 10 mM Tris pH 7.5, 50 mM NaCl, 0.5 mM DTT, 1 mM MgCl2, 2.5% glycerol; 20 min at room temperature; 50 ng DNA in 20 ul; 6% acrylamide-TBE gel
[2] = system: OmpR-6His (Dickeya dadantii 3937 (EC3937)); assay: EMSA; conditions: 10 mM Tris pH 7.5, 50 mM NaCl, 0.5 mM DTT, 1 mM MgCl2, 2.5% glycerol; 20 min at room temperature; 50 ng DNA in 20 ul; 6% acrylamide-TBE gel

Substance opgC promoter region has a binding [1] of 300 ng and a binding [2] of 500 ng.
